The data set deals with MS2 coat protein. Briefly: apparent KD of MS2 coat protein; higher = weaker reporter binding. The following applies: Eterna round: R107. An outline of the steps: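 Designed RNA switches were transcribed on-chip from Illumina sequencing clusters and titrated with SNAP-549-labelled MS2 coat protein in twofold steps from 0.7 or 1.5 nM up to 3 µM. Each step lasted 0.8–1.5 h at first and 10–20 min by the end, in 100 mM Tris-HCl pH 7.5, 80 mM KCl and 4 mM MgCl2, without or with constant ligand. Apparent KD is the median, for each design, of fits to normalised cluster binding curves.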

[1] abbreviates: input ligand: theophylline 20 uM.
Where [2] appears, read: input ligand: tryptophan 2.4 mM.
Where [3] appears, read: input ligand: theophylline 2 mM.

As to “CUGACGUAGGAAGAUAUCUGGAACAAGGAUACCAGUAAACCAACAUACCCUUGGCAGCCUAAAACAUGAGGAUCACCCAUGUAAU [theeternabot_exclusion_MS2_Theo_A_26]”, the “apparent KD of MS2 coat protein” value is 11.9 nM (input ligand: arginine 13.2 mM), 14.2 nM under setting [1] and 13.7 nM under setting [2].
For “GACAUGAGGAUAGAUACCAGCGACAUGAGGAUCACAUGAGGAUCACCCAUGUGUAGUAUACGCCCUUGGCAGCUAACAUGAGGAU [Same State Theophylline B 3]”, in that order: 59.5 nM, 129 nM and 68.1 nM.
As to “GACAUGAGGAUCACCCAUGUACCGCGAGAAGGAGCGCGGAUAAACGCAGGUAGGUCGCUCGUGGGCUUAUAUUCAAUUGUAAGCU [Usence]”, the “apparent KD of MS2 coat protein” value runs as follows: (input ligand: arginine 13.2 mM) 24.8 nM; (input ligand: none) 33.2 nM; under setting [1], 43.1 nM; under setting [3], 44.6 nM; under setting [2], 30.4 nM.
For “GACCCAUGAGUUGGAAAAGCUCAUGGGUCGCGAGGACCGGUACGGCCGCCACUCGGCUGUACAUGAGGAUCACCCAUGUCAGGGU [#1 Same State - Tryptophan A Attempt #25 (HarryS)]”, in that order: 96.9 nM, 125 nM, 614 nM, 573 nM and 711 nM.
In the case of “GAGCUGAUGUAGAAAUUUUAUUUAUGAGAUACCAGUACAGAAAUGUACCCUUGGCAGCUCAUUUUUACAUGAGGAUCACCCAUGU [Ex Theophylline A 14]”, the “apparent KD of MS2 coat protein” value (input ligand: arginine 13.2 mM) worked out at 13.5 nM, the “apparent KD of MS2 coat protein” value under setting [1] came out at 12.8 nM and the “apparent KD of MS2 coat protein” value under setting [2] worked out at 13.3 nM.
Turning to “GAGUAGAGGACGGCCGCCACUGAACAUGAGGAUCACCCAUGUCGUGAUCCGUUACCUAAAGAAGAUAGGACCGGGUCAUGUACUC [Exclusion Tryptophan B GF 19]”, the “apparent KD of MS2 coat protein” value amounted to 28.9 nM (input ligand: arginine 13.2 mM), 41.7 nM under setting [1] and 32.7 nM under setting [3].
In the case of “GAUGAACUAUAUGAUACCAGACAACAUGAGGAUCACCCAUGUGAAUGUCGUCCUCUGCCUGUCCCUUGGCAGCGUAUAGUUUAUC [XTheo B #15]”, the “apparent KD of MS2 coat protein” value was found to be 29.3 nM (input ligand: arginine 13.2 mM), 67.6 nM under setting [1] and 20.3 nM under setting [2].
For “GAUGAACUAUUUGAUACCAGACUACAUGAGGAUCACCCAUGUGCGCGUCGUCCUCUGCCAGUCCCUUGGCAGCAAAUAGUUUAUC [XTheo B #9]”, the “apparent KD of MS2 coat protein” value (input ligand: arginine 13.2 mM) was found to be 69.8 nM, the “apparent KD of MS2 coat protein” value under setting [1] turned out to be 140 nM and the “apparent KD of MS2 coat protein” value under setting [2] was found to be 85.2 nM.
On to “GCACAAGAUGGAAGGAGCGCUGGUAAAGGUCACAUGAGGAUCACCCAUGUGCUCCUUGCCGAGCAGGUAGGUCGCCAUCUUGUGC [SSAB NP+V+V2 #3]”, for which the “apparent KD of MS2 coat protein” value was determined as 14.1 nM (input ligand: arginine 13.2 mM); 11.7 nM (input ligand: none); 16.4 nM under setting [1]; 13.3 nM under setting [3]; 11.7 nM under setting [2].
Regarding “GCACGGUAGUCGGCCGCCACUGAAACAUGUGUCUACAUGAGGAUCACCCAUGUGGGUGUGUUUUGUAGGACCGGGACAAGACCCG [#11 Same State - Tryptophan B]”, the “apparent KD of MS2 coat protein” value reads like this: (input ligand: arginine 13.2 mM) 16.8 nM; (input ligand: none) 19 nM; under setting [1], 28.1 nM; under setting [3], 18 nM; under setting [2], 17.2 nM.
In the same order, the values of “GCAUCCUAGUCGGCCGCCACUGCAGGAUCGGCGGCAGAUCCUCAACAUGAGGAUCACCCAUGUAGCAGGACCGGGACUAGGAUGC [(Trp1)-(TM)''-(TM)'-(Ms2)-(Trp2)_Design2]” are 36.3 nM, 91.6 nM, 80.3 nM, 48.1 nM and 99.8 nM.
On to “GCCUAGCAUCGAAGGAGCGGGCAUUACGCGCGAAAGCGCGAUGCACGAGGAUCACCCGUGUCCCAGGUAGGUCGCGAUGCUAGGC [SSAB Alternative Aptamer #4 V+V2]”, for which the “apparent KD of MS2 coat protein” value runs as follows: (input ligand: arginine 13.2 mM) 153 nM; (input ligand: none) 508 nM; under setting [1], 368 nM; under setting [3], 527 nM; under setting [2], 343 nM.
In the same order, the values of “GCGAUGGAGCGAAGGAGCGUGCUAGUACAUGAGGAUCACCCAUGUGAGUCGCAUCGCUAAGCACAGGUAGGUCGCGCUCCAUCGC [EAB NP+V+V2 #9]” are 44.6 nM, 94.2 nM, 122 nM, 145 nM and 87.6 nM.
For the sequence “GCGAUGGAGCGAAGGAGCGUGCUGGUACAUGAGGAUCACCCAUGUGAACCGCAGCGCUAAGCACAGGUAGGUCGCGCUCCAUCGC [EAB NP+V+V2 #14]”, the “apparent KD of MS2 coat protein” value is 102 nM (input ligand: arginine 13.2 mM); 28.8 nM (input ligand: none); 28.4 nM under setting [1]; 23 nM under setting [3]; 41.9 nM under setting [2].
As to “GCGAUGGAGCGAAGGAGCGUGCUGGUACAUGAGGAUCACCCAUGUGAGUCGCAUCGCUAAGCACAGGUAGGUCGCGCUCCAUCGC [EAB NP+V+V2 #10]”, the “apparent KD of MS2 coat protein” value runs as follows: (input ligand: arginine 13.2 mM) 48.6 nM; (input ligand: none) 58.4 nM; under setting [1], 85 nM; under setting [3], 83 nM; under setting [2], 66.5 nM.
For the sequence “GCGCGGCGAGUGCGGCGUGUUCCGCUCCGUCGAGGACCGGUACGGCCGCCACUCGACAUGAGGAUCACCCAUGUCGCCGCGCGCG [Exclusion - Tryptophan A Attempt #3]”, the “apparent KD of MS2 coat protein” value stood at 13.9 nM (input ligand: arginine 13.2 mM); 13.3 nM (input ligand: none); 22.9 nM under setting [1]; 48.3 nM under setting [3]; 13.5 nM under setting [2].
Regarding “GCGGUCCACUUGGAUACCAGCAGAUUAAUAAACAUGAGGAUCACCCAUGUAAGCGCCUUGUGCCCUUGGCAGCCAGGGUGGUCAG [theeternabot_sameState_MS2_Theo_B_50]”, the “apparent KD of MS2 coat protein” value reads like this: (input ligand: arginine 13.2 mM) 55.5 nM; under setting [1], 136 nM; under setting [2], 88.4 nM.
In the case of “GCUAGCCGAAAGGCUAGCAAGGCUACAGAAGGAGCGUGCGAAAGCACAGGUAGGUCGCUGAGCUUGAGGAUCACCCAAGUUGCCU [SSAA - Alter Amptam #1 V+V2]”, the “apparent KD of MS2 coat protein” value (input ligand: arginine 13.2 mM) was 26.2 nM; the “apparent KD of MS2 coat protein” value (input ligand: none) is 66.7 nM; the “apparent KD of MS2 coat protein” value under setting [1] was 57.2 nM; the “apparent KD of MS2 coat protein” value under setting [3] was found to be 48.6 nM; the “apparent KD of MS2 coat protein” value under setting [2] is 64 nM.
Regarding “GCUAGGUCAUCGGCCGCCACUAACGACGGUUCGAACAUGAGGAUCACCCAUGUGCCACAUGCGCAUAGGACCGGGAUGACCUAGC [SSTB NP+V+V2 #6]”, the “apparent KD of MS2 coat protein” value was found to be 35.7 nM (input ligand: arginine 13.2 mM); 19.5 nM (input ligand: none); 24.3 nM under setting [1]; 21.2 nM under setting [3]; 11.7 nM under setting [2].
